Test: yeast display, Sf9 membrane polyspecificity reagent, FACS + sequencing; frameworks hold sequencing errors
Outline: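 Genes from sorted yeast were amplified by colony PCR, read by MiSeq 2 × 250 sequencing and filtered on CDR length. These cells carried a synthetic nanobody library in Saccharomyces cerevisiae BJ5465 and were sorted by FACS into low and high (top ~1%) gates on anti-HA and streptavidin fluorescence. Polyreactivity is labelled according to the gate of origin.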

Row | Sequence | polyreactivity (PSR sort gate)
1 | QVQLVESGGGLVQAGGSLRLSCAASGIIFATYAMGWYRQAPGKERELVAAISSGGRTYYADSVKGRFTISRDNAKNTVYFQMNSLKPEDTAVYYCAAKSGGRSSLYNYWGQGTQVTVSS | high polyreactivity
2 | QVQLVESGGGLVQAGGSLRLSCAASGRIFYYNAMGWYRQAPGKERELVAAITYIGGNTHYADSVKGRFTISRDNAKNTVYFQMNSLKPEDTAVYYCARGTVLGFYYEYGYWGQGTQVTVSS | low polyreactivity
3 | HVQLVESGGGLVQAGGSLRLSFAASASIYQFYPMGWYRPAPGKERELVAGINNSGGSTYYADSVKGRFTISRDNAKNTVYLQMNSLKPEDTAVYYCMARSRYDTGRQRGYDYWGQGTQVTVSS | low polyreactivity
4 | QVQLVESGGGLVEAGGSLRLSCAASGSTFGVNAMGWSRQAPGKERELVAVITRSGGSTYYADSVKGRFTISRDNAKNTVYLQMNSLKPEDTAVYYCAKSGVVDWGQGTQVTVSS | low polyreactivity
5 | QVQLVESGGGIVQAGGSLRLSCAASGSIVRGYAMGWYRQAPGKERELVAAITFSGGSTYADSVKGRFTISRDNAKNTVYLQMNSLKPEDTAVYYCAAKRTGHNWFTVYPYYSWGQGTQVTVSS | low polyreactivity
6 | QVQLVESGGGIVQAGGSLRLSCAASGSTVVIYTMGWSRQAAGKEREFVASLSVSGGSTYYADSVKGRFTISRDYAKKTVYLQMNSLKPEDTAVYYCAAGYPYYYWTPYYYWGQGTQVTVSS | high polyreactivity
7 | QVQLVESGGGLVQAGGSLRLSCAASGRIYWNTMGWYRQAPWKEREMVASISTGCGRTYYADSVKGRFTISRDNAKNTVYLQMHSLKPEDTSVYYCNAVRTVWYRYEYGYWGQGTQVTVSS | high polyreactivity
8 | QVQLVESGGGLVHAGGSLRLSCAASGIILDYNAMGWYRQAPGKERELVAAITWSGSSTFYADTVKGRYTISHDNSKNTVYLQMNSLKPEDTAVYYCNADYFWGTYANFDYWGQCTQVTVSS | low polyreactivity
9 | QVQLEESGGGLVQAGGSLRLSSAASGRIYTKNAMGRYRHAPGKERELVAAITTSGGSTYYADSVKGRFTISRDNAKNSVYLQMKSLKPEDTAVYYCAAERYNGYDYWGQGTQVSVSS | high polyreactivity
10 | QVQLVESGGGLVQAGGSLRLSCAASGFIFGPYAMGWYRQAPGKERELVAASWRGGSTYYADSVKGRFTISRDNAKNTVYLQMNSLKPEDTAVYYCAADVFYSLYYYWGQGTQVTVSS | low polyreactivity
11 | QVQLVESGGGLVQAGGSLRLSCAASGRIFGINAMGWYRQGPGKERELVAASRSSDVSTYNADSVKGRFTISRDNAKNTVYLQMNSLKPEDTAVYYCAAAYRTQIYRNEYWGQGTQVTVSS | low polyreactivity
12 | QVQLVESGGCLVQAGGSLRLSCAASGSILRYYAMGWYRQAPGKERELVAAISRGGSTYYADSVKGRFTISRDNAKNTVYLQMNSLKPEDTAVYYCARLPLRYYFGYDYWGQGTQVTVSS | high polyreactivity
13 | QVQLVESGGGLDQAGGSLRLSCAASGSIFYFNAMGWYRQAPGKARELVAAISTSGGSTYADSVKGRFTISRDNAKYTVYLQMNSLKPEDSAVYYFAADYLTSRSRTFDYWGQGTQVTVSS | low polyreactivity
14 | QVQLVESGGGLDQAGGSLRLSCAASGNTSPVNAMGWYRQAPGKERELVAAITQSGGSTYYADSVKGRFTISRDNAKNTVYLQMNSLKPEDTAVYYCAAPDAGWRDGGDYWGQGTQVTVSS | low polyreactivity
15 | PVQLVESGGGLVQAGGRLLLICAASGSIFTPKAMGWYRQAPGKERELVAAITSRGGSTYYADSVKGRFTISRDNAKNTFYLQMNSLKPEDTAVYYCASKPHSSKYDYWGQGTQVTVSS | low polyreactivity
16 | QVQLVESGVGLVQAGGSLRLSCAASGSTFVYMGWYRQAPGKEREFVAAITWSGGSTYYADSVKGRFTISRDNAKNTVYLQMNSLKPEDTAVYYCNAVSVFPGWARYYYWGQGTQVTVSS | low polyreactivity

Row | Sequence | polyreactivity (PSR sort gate)
17 | QVQLEESGVGLVQAGGSLRLSCAASGYTFDYYDMAWYRQAPGKERELVAAISCSGGRTYYADSVKGRFTISRDNAKNTVYLQMNSLKPEDTAVYYCNTRYGALGKGGMDYWGQGTQVTVSS | high polyreactivity
18 | QVQLVESGGGLVQAGASLRLSCAASVSTFGVNAMGCYRQAPGKERELVAAISSSGSSTYADSVKGRFTISRDNAKNTVYLQMNSLKPEDTAVYYCNITTLLSVVYDYWGQGTQVNVSS | low polyreactivity
19 | QVQLVESGGGLVQAGGSLRLSCAASARIIYSNAMGWYRQAPGKERELVATISTGGSTYADSVKGRFTISRDNAKNTVYLQINSLKPEDTAVYYCAVDEWRWRVGAVAYYYWGQGTQVTVSS | low polyreactivity
20 | QVQLVESGGGLVQAGGSLRLSCAASGYTFYEYAMGWYRQAPGKERELGAAIRGSGGGTYYADSVKGRFTISRDNAKNTVYLQMNSLKPEDTAVYYCAVKYAYPYAGVSAIRYYYWGQGTQVTVSS | low polyreactivity
21 | QVQLVESGGGLVQAGGSLRLSCAPSGRIFKRNTMGWYRQAPGKVRELVAAITGSSGSTYYADSVKGRFTISRDNAKNNVLLQMNSLKPEDTAVYYCNTVRSVYQYWPYNYWGQGTQETVSS | high polyreactivity
22 | QVQLVESGGGLVQAGGSLRLSCAASGRTFFLYTIGWYRQAPGKEREFVAAITTIGGSTYYADSVKGRFTISRDNAKNTVSLQMHSLKPEDTAVYYCNARVGPELHDYWGQGTQVTVSS | low polyreactivity
23 | QVPLVESGGGLVQAGGSLRLSCAASGRIFLRYDIGWYRKAPGKERELVAAIPRSGGSTYYADSVKGRFTISRDNAKNTVYLQMNSLKPEDTAVYYCAARRWGRVYTTYTGGYWGQGTQVTVSS | high polyreactivity
24 | QVQLVESGGGLVQAGGSLRLSCAASGSTFFRYAMGWYRQAPGKERELVAAITSGGNTYYADSVKGRFTISRDNAKNTVYLQMNSLIPEDTAVYYCAVVFWQLAHRYDYWGQGTQVTVSS | low polyreactivity
25 | QVQLEESGGGLVQAGGSLRLSCAATGSLFYTYSMGWYRQAPGKERELGASIRSDGITNYADSVKGRFTISRDNAKNTVYLQMNSLKPEDTAVYYCAARIIWSTNYYYWSGYNSWGQGTQVTVSS | high polyreactivity
26 | QVQLVESGGGLVQAGGSLRLSCAASGSTFYLNVMGWYRQAPGKERELVAAISSGDGSTYYADSVKGRFTISRDNAKNTVYLQMNSLKPEDTAVYYCAAEPDTEVDYDYWGQGTQVTVSS | low polyreactivity
27 | QVQLVESGGGLVQAGGSLRLSCAASGNTFVSNAMGWYRQAPGKERELVAAIDSGGSTNYADSVKGRFTISRDNEKNTVYLQMKSLKPEDTAVYYCNRTSVYYYYWGQGTQVTVSS | low polyreactivity
28 | QVQLVESGGGLVQAGGSLRLSCAASGSIFRYYAMGWYRQAPGKERELVATISWSGGGTYYADSVKGRFTISRDTAKNTVYLLMNSLKPDVTGVYYCAAVGTVPRKQRYHSYIDYDYWGQGTQVTVSS | low polyreactivity
29 | QVQLVESGGGLVQAGGSLRLSCAASGFTIADYAMGWYRQAPGKERELVAAITYSGGSTYYADSVKGRFTISRDNAKNTVYLQMNSLKPEDTAVYYWNADYASQSGYDYWGQGTQVTVSS | low polyreactivity
30 | QFQLVESGGGLVQAGGSLRLSCAASGGTFGNNDMGWYRQAPGKERELVAAIRSAGTTYYADSVKGRFTISRDNAKNTVYLQMNSLKPEDTAVYYCNADTTGYWSYGFQYYGEDYWGQGTQVTVSS | low polyreactivity
31 | QVQLVESGGGLVQAGGSLRLSCAASGSTFEYYAMGWDRQAPGKERELVAAISITGGSSYYADSVKGRFTISRDNAKNTVYLQMNSLKPEDTAVCYCAASVPLARRLGYPWRRAGYNYWGQGTQVTVSS | high polyreactivity
32 | QVQLVESGGGLVQAGGSLRLSCDASGRTFGQNAMGWYRQAPGKERELVAGIDWSCGNTYYADSVKGRFTISRDNAKNTVYLQMNSLKPEDTAVYYCNTEGGRDTDWYDYWGQGTQVTVSS | low polyreactivity
